Data on 2 substances can be found in patent publication US6420345.

In one test the target is CDC2/cyclin B complex (UniProt P06493). As to the kind of experiment: cell-based or functional assay.
Test [1] has as its target CDK4/cyclin D1 complex (UniProt P11802). As to the kind of experiment: cell-based or functional assay.
The next test concerns the target CDK2/cyclin E complex (UniProt P24941). As to the kind of experiment: cell-based or functional assay.
Another test addresses CDK2/cyclin A complex (UniProt P24941). Nature of the test: cell-based or functional assay.
The target of test [2] is CDK4/cyclin D1 complex (UniProt P11802). Nature of the test: in vitro kinase inhibition assay (32P incorporation into GST-Rb).
CDK4/cyclin D1 complex, sequence (P11802 whole entry, chain 1 of 2): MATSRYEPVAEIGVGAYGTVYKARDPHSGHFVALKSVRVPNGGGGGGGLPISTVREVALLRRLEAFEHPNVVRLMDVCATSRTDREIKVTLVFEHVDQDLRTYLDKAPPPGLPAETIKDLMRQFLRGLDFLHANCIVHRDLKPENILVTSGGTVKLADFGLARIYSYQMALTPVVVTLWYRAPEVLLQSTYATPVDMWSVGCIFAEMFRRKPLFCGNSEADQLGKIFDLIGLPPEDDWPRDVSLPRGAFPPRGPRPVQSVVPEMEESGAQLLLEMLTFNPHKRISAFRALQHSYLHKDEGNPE
CDK4/cyclin D1 complex, sequence (P24385 whole entry, chain 2 of 2, further chain): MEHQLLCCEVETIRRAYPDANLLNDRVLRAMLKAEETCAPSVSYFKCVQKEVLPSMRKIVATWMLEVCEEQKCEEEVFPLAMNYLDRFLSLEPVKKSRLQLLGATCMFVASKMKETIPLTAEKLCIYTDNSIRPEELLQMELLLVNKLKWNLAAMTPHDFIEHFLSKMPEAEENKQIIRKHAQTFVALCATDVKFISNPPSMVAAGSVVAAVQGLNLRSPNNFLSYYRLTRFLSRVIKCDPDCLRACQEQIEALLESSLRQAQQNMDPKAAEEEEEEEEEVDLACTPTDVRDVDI

CDC2/cyclin B complex, sequence (P06493 whole entry, chain 1 of 2): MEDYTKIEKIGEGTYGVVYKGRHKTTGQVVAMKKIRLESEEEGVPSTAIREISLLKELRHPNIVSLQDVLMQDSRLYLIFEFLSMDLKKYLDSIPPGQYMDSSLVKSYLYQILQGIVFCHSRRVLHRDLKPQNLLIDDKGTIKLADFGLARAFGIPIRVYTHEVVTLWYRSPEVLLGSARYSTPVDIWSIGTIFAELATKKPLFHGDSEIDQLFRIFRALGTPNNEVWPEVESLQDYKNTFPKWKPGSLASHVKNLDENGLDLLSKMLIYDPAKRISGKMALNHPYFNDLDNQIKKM
CDC2/cyclin B complex, sequence (P14635 whole entry, chain 2 of 2, further chain): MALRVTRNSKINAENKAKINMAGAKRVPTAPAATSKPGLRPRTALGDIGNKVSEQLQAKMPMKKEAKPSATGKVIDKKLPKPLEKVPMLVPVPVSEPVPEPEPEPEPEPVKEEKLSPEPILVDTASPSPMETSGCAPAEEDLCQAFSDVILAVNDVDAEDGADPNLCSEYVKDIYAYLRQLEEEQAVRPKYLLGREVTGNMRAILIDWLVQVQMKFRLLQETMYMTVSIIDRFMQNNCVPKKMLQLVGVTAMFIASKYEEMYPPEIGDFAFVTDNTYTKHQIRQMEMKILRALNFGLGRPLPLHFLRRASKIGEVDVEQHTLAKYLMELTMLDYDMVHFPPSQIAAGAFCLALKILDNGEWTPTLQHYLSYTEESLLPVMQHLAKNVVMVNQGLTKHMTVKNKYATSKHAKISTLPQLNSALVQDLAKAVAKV

Turning to “human p27 (full length, 6xHis and HA tagged) (from UniProt P46527 1-198)”, the values for the IC50, in vitro kinase assay with CDC2/cyclin B complex and with CDK4/cyclin D1 complex [1] were 20 nM and 63 nM, respectively.

p27-p16 fusion protein: the IC50, in vitro kinase assay came out at 30 nM in the test with CDK2/cyclin E complex, 15 nM with CDC2/cyclin B complex, 25 nM with CDK4/cyclin D1 complex [1] and 25 nM with CDK2/cyclin A complex. Besides, the Ki (usually a measure of affinity in units of concentration, obtained from inhibition or displacement) with CDK4/cyclin D1 complex [2] worked out at 23 nM.
